Source: article doi:10.1101/2023.05.30.542861

Key:
P00330 = assay: mass photometry; conditions: other: mass photometry
[1] = target: subunits of the human 20S proteasome (28 subunits); assay: cross-linking
[2] = target: Alcohol dehydrogenase from baker's yeast (baker's yeast) (UniProt P00330); assay: cross-linking

Substance: Alcohol dehydrogenase from baker's yeast
- % monomers after 5 min in guanidine HCl (dMP) (P00330): ∼34 % monomers

Substance: subunits of the human 20S proteasome (28 subunits)
- % covalently stabilised 20S proteasome (25:1 DSBU:20S) [1]: 16%
- % covalently stabilised 20S proteasome (400:1 DSBU:20S) [1]: 25%

Substance: Alcohol dehydrogenase from baker's yeast (from UniProt P00330 1-348) (enzyme)
- % of total counts as dimers (25:1 DSBU:ADH) [2]: 25%
- % of total counts as monomers (25:1 DSBU:ADH) [2]: 50%
- % of total counts as tetramers (25:1 DSBU:ADH) [2]: 10%
- % of total counts as tetramers (DSBU molar excess ≥ 100) [2]: 53%
- % of total counts as trimers (25:1 DSBU:ADH) [2]: 14%
- stoichiometry N [2]: 4
